According to patent publication US20090285830A1 (published 2009):

T1: recombinant human lymphotoxin-α (LTα), homotrimer LTα3 (human, UniProt P01374 35-205)
T1 construct: One molecule is used for 'LTα' (plate ELISA), 'rhLTα' (BIACORE, phage ELISA) and 'human LTα3'; also called human LTα3; rhLTα
T1 sequence (looked up): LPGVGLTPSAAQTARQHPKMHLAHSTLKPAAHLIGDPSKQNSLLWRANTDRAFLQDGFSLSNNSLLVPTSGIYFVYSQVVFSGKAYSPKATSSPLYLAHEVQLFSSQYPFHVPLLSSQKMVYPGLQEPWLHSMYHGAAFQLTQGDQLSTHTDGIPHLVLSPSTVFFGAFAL

T2: recombinant human lymphotoxin-α (LTα), homotrimer LTα3 (human) (UniProt P01374)
T2 sequence (looked up): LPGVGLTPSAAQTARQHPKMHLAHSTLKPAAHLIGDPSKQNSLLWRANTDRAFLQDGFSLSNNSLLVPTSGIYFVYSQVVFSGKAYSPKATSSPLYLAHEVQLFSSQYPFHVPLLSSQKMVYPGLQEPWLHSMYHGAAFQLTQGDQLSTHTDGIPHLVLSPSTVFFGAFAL


Molecular target: T1, recombinant human lymphotoxin-α (LTα), …
Experiment: plate ELISA on coated LTα

Binder | Relative binding (to the original chimera) [x down]
humanized 3F12 v4 (antibody, V domains shown) VH: EVQLVESGGGLVQPGGSLRLSCAASGYTFSSYWIEWVRQAPGKGLEWVGEISPGSGSTNYNEEFKGRATISADNSKNTAYLQMNSLRAEDTAVYYCADGYHGYWGQGTLVTVSS VL: DIQMTQSPSSLSASVGDRVTITCKSSQSLLYSTNQKNFLAWYQQKPGKAPKLLIYWASTRDSGVPSRFSGSGSGTDFTLTISSLQPEDFATYYCQQYYSYPRTFGQGTKVEIKR | > 500
humanized 3F12 v2 (antibody, V domains shown) VH: EVQLVESGGGLVQPGGSLRLSCAASGYTFSSYWIEWVRQAPGKGLEWVGEISPGSGSTNYNEEFKGRATFSADNSKNTLYLQMNSLRAEDTAVYYCADGYHGYWGQGTLVTVSS VL: DIQMTQSPSSLSASVGDRVTITCKSSQSLLYSTNQKNFLAWYQQKPGKAPKLLIYWASTRDSGVPSRFSGSGSGTDFTLTISSLQPEDFATYYCQQYYSYPRTFGQGTKVEIKR | > 1000
humanized 3F12 v3 (antibody, V domains shown) VH: EVQLVESGGGLVQPGGSLRLSCAASGYTFSSYWIEWVRQAPGKGLEWVGEISPGSGSTNYNEEFKGRATISADKSKNTLYLQMNSLRAEDTAVYYCADGYHGYWGQGTLVTVSS VL: DIQMTQSPSSLSASVGDRVTITCKSSQSLLYSTNQKNFLAWYQQKPGKAPKLLIYWASTRDSGVPSRFSGSGSGTDFTLTISSLQPEDFATYYCQQYYSYPRTFGQGTKVEIKR | > 1000

Molecular target: T1, recombinant human lymphotoxin-α (LTα), …
Experiment: plate-based ELISA on human LTα, ratio to the chimera

Binder | ELISA IC50 ratio
chimeric anti-LTα antibody 2C8 (murine/human chimera) (antibody, human IgG1, kappa, V domains shown, also called 2C8 chimera; 2C8.chimera) VH: EVQLQQSGPELVKPGASVKLSCKASGYTFTSYVIHWVKQKPGQGLEWIGYNNPYNDGTNYNEKFKGKATLTSDKSSSTAYMELSSLTSEDSAVYYCSRPTMLPWFAYWGQGTTLTVSA VL: DIVMTQSHKFMSTSVGDRVSITCKASQAVSSAVAWYQQKPGQSPKLQIYSASHRYTGVPDRFTGSGSGTDFTFTISSVQAEDLAVYYCQQHYSTPWTFGGGTKVEIKR | 1
humanized 2C8.v2 (antibody, IgG1, V domains shown, also called Version 2; wild-type 2C8.v2) VH: EVQLVESGGGLVQPGGSLRLSCAASGYTFTSYVIHWVRQAPGKGLEWVGYNNPYNDGTNYNEKFKGRATISSDKSKNTAYLQMNSLRAEDTAVYYCSRPTMLPWFAYWGQGTLVTVSS VL: DIQMTQSPSSLSASVGDRVTITCRASQAVSSAVAWYQQKPGKAPKLQIYSASHRYTGVPSRFSGSGSGTDFTLTISSLQPEDFATYYCQQHYSTPWTFGQGTKVEIKR | 1.7
humanized 2C8.v7 (antibody, V domains shown) VH: EVQLVESGGGLVQPGGSLRLSCAASGYTFTSYVIHWVRQAPGKGLEWVGYNNPYNDGTNYNEKFKGRATISSDKSKNTAYLQMNSLRAEDTAVYYCSRPTMLPWFAYWGQGTLVTVSS VL: DIQMTQSPSSLSASVGDRVTITCRASQAVSSAVAWYQQKPGKAPKLLIYSASHRYTGVPSRFSGSGSGTDFTLTISSLQPEDFATYYCQQHYSTPWTFGQGTKVEIKR | 1.2
humanized 2C8.v16 (antibody, V domains shown, HC v12 = HC v2 + A67F) VH: EVQLVESGGGLVQPGGSLRLSCAASGYTFTSYVIHWVRQAPGKGLEWVGYNNPYNDGTNYNEKFKGRFTISSDKSKNTAYLQMNSLRAEDTAVYYCSRPTMLPWFAYWGQGTLVTVSS VL: DIQMTQSPSSLSASVGDRVTITCRASQAVSSAVAWYQQKPGKAPKLLIYSASHRYTGVPSRFSGSGSGTDFTLTISSLQPEDFATYYCQESYSTPWTFGQGTKVEIKR | 0.6
humanized 2C8.v12 (antibody, V domains shown, HC v12 = HC v2 + A67F); also called Version 12) VH: EVQLVESGGGLVQPGGSLRLSCAASGYTFTSYVIHWVRQAPGKGLEWVGYNNPYNDGTNYNEKFKGRFTISSDKSKNTAYLQMNSLRAEDTAVYYCSRPTMLPWFAYWGQGTLVTVSS VL: DIQMTQSPSSLSASVGDRVTITCRASQAVSSAVAWYQQKPGKAPKLLIYSASHRYTGVPSRFSGSGSGTDFTLTISSLQPEDFATYYCQQHYSTPWTFGQGTKVEIKR | 1

Molecular target: T2, recombinant human lymphotoxin-α (LTα), homotrimer LTα3 (human)
Experiment: plate-based ELISA against LTα

Binder | relative binding (EC50 of the variant / EC50 of version 5)
humanized 3F12 version 8 (v5 with CDR-H3 G95A) (antibody, V domains shown) VH: EVQLVESGGGLVQPGGSLRLSCAASGYTFSSYWIEWVRQAPGKGLEWVGEISPGSGSTNYNEEFKGRATFSADNSKNTAYLQMNSLRAEDTAVYYCADAYHGYWGQGTLVTVSS VL: DIQMTQSPSSLSASVGDRVTITCKSSQSLLYSTNQKNFLAWYQQKPGKAPKLLIYWASTRDSGVPSRFSGSGSGTDFTLTISSLQPEDFATYYCQQYYSYPRTFGQGTKVEIK | > 100
humanized 3F12 version 10 (v5 with CDR-H3 H100A) (antibody, V domains shown) VH: EVQLVESGGGLVQPGGSLRLSCAASGYTFSSYWIEWVRQAPGKGLEWVGEISPGSGSTNYNEEFKGRATFSADNSKNTAYLQMNSLRAEDTAVYYCADGYAGYWGQGTLVTVSS VL: DIQMTQSPSSLSASVGDRVTITCKSSQSLLYSTNQKNFLAWYQQKPGKAPKLLIYWASTRDSGVPSRFSGSGSGTDFTLTISSLQPEDFATYYCQQYYSYPRTFGQGTKVEIK | > 100
